Biological target: T1, Scd5 DxxDxxxD motif peptide (Saccharomyces cerevisiae, UniProt P34758)
T1 chain: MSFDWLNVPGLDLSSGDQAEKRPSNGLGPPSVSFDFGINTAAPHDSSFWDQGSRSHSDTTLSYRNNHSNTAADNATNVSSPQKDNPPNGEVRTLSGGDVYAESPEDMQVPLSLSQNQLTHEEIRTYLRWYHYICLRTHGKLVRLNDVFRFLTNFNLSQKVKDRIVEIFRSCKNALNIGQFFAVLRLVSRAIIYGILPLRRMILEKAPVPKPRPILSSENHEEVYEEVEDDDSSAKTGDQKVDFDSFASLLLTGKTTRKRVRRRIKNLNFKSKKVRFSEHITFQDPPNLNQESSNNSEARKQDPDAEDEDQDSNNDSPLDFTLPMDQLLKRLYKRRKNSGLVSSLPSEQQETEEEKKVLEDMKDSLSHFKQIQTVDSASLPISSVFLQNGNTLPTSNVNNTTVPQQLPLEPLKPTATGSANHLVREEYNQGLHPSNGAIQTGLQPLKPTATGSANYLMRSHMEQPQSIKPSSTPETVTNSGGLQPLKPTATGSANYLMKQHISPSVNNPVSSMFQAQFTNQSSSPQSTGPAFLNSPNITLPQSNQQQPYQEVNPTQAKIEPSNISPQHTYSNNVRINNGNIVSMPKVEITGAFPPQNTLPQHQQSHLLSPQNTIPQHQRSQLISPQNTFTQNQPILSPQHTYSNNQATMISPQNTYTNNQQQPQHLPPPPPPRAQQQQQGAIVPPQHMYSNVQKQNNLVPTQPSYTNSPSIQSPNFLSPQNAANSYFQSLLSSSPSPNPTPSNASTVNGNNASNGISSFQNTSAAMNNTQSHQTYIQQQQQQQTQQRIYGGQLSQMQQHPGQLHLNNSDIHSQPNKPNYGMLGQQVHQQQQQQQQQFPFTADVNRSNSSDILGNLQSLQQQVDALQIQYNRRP
Assay: fluorescence polarization

- Kd: 22 µM
B1: PP1 (Glc7) (protein)
chain: MDSQPVDVDNIIDRLLEVRGSKPGQQVDLEENEIRYLCSKARSIFIKQPILLELEAPIKICGDIHGQYYDLLRLFEYGGFPPESNYLFLGDYVDRGKQSLETICLLLAYKIKYPENFFILRGNHECASINRIYGFYDECKRRYNIKLWKTFTDCFNCLPIAAIIDEKIFCMHGGLSPDLNSMEQIRRVMRPTDIPDVGLLCDLLWSDPDKDIVGWSENDRGVSFTFGPDVVNRFLQKQDMELICRAHQVVEDGYEFFSKRQLVTLFSAPNYCGEFDNAGAMMSVDESLLCSFQILKPAQKSLPRQAGGRKKK
modifications: fluorescently labelled peptide
